Data: patent publication US20200207858A1 (ADICET BIO, published 2020)

B1: D11 TCRL antibody (murine parental monoclonal antibody) (antibody, mouse IgG1, kappa, V domains shown)
VH: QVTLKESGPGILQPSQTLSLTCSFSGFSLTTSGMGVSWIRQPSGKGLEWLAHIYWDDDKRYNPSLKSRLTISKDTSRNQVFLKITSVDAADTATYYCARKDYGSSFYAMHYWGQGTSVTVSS
VL: DIQMTQSPSSLSASLGGKVTITCKASQDIHNYIAWYQHKPVKGPRLLIHYTSTLQPGTPSRFSGSGSGRDYSFSISNLEPEDIATYYCLQYDNLWTFGGGTKLEIKR
notes: Mouse IgG1 isotype, recombinant from Expi293 cells; The antibody was biotinylated for flow cytometry; also called mouse parental D11
B2: hD11-5 TCRL antibody (humanized D11) (antibody, human IgG1, kappa, V domains shown)
VH: QITLKESGPTLVKPTQTLTLTCTFSGFSLSTSGMGVSWIRQPPGKALEWLAHIYWDDDKRYNPSLKSRLTITKDTSKNQVVLTMTNMDPVDTATYYCARKDYGSSFYAMHYWGQGTLVTVSS
VL: DIQMTQSPSSLSASVGDRVTITCKASQDIHNYIAWYQQKPGKAPKLLIHYTSTLQPGVPSRFSGSGSGTDFTFTISSLQPEDIATYYCLQYDNLWTFGQGTKVEIKR
notes: The antibody was biotinylated for flow cytometry; also called dH11-5

Tests used:
[1] = biological target: T1, Single-chain HLA-A2 (scHLA-A2)/TyrD 369-377 peptide complex; assay: SPR (ProteOn), IgG captured by immobilized anti-mouse antibody, scHLA-A2/TyrD 369-377 as analyte (250-16 nM), Langmuir kinetic fit, column KD
T1 construct: Used as the soluble analyte in SPR; not shown: flexible linker

[2] = biological target: T1, Single-chain HLA-A2 (scHLA-A2)/TyrD …; assay: SPR (ProteOn), IgG captured by immobilized anti-mouse antibody, scHLA-A2/TyrD complex as analyte at 16-250 nM, apparent affinity
Experimental: (§1) Briefly, six channels of ProteOn GLM sensor chip (BioRad laboratories) were activated with 50 μl of a mixture of 0.04 M N-ethyl-N′-(3-dimethylaminopropyl) carbodiimide (EDC) and 0.01 M sulfo-N-hydroxysuccinimide (Sulfo-NHS) at a flow rate of 30 μl/min. The anti-mouse or anti-human polyclonal antibodies (Jackson ImmunoResearch) were diluted in 10 mM sodium acetate buffer pH 4.5 to a final concentration of 25 μg/ml and 150 μl were injected followed by an injection of 150 μl of 1 M ethanolamine-HCl pH 8.5. The IgG TCRL antibodies were injected in the vertical orientation with a flow rate of 30 μl/min. […] Running buffer (PBST) was injected simultaneously in the sixth channel for double referencing to correct for loss of the captured antibodies from the chip sensor surface during the experiment. All binding sensorgrams were collected, processed and analyzed using the integrated ProteOn Manager (Bio-Rad Laboratories, Hercules, USA) software. Binding curves were fitted using the Langmuir model describing 1:1 binding stoichiometry, or with the Langmuir and mass transfer limitation model.

[3] = biological target: T1, Single-chain HLA-A2 (scHLA-A2)/TyrD …; assay: SPR (ProteOn), IgG captured by immobilized anti-human antibody, scHLA-A2/TyrD complex as analyte at 16-250 nM, apparent affinity
Experimental: as §1

[4] = biological target: T1, Single-chain HLA-A2 (scHLA-A2)/TyrD …; assay: SPR (ProteOn), IgG captured by immobilized anti-human antibody, scHLA-A2/TyrD 369-377 as analyte (250-16 nM), Langmuir kinetic fit, column KD
Experimental: as §1

Row | Binder | Kd [1] [nM] | Kd [2] [nM] | Kd [3] [nM] | Kd [4] [nM]
1 | B1 | 3.98 | 4.6 |  | 
2 | B2 |  |  | 3.9 | 4.61
